Experimental data: patent publication US20250163127A1
Where “and” joins values, the source holds several entries; their conditions need not be identical. Equal entries are not always repeated.

Assays:
[1] = target: T1, TIGIT (human) (UniProt Q495A1); experiment: flow cytometry, transfected HEK293 cells
T1 sequence: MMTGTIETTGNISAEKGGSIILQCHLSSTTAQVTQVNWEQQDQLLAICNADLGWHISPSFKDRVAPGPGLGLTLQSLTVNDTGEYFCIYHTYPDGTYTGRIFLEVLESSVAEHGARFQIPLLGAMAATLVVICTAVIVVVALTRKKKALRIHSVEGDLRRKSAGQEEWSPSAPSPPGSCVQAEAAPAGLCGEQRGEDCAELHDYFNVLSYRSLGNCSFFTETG

[2] = target: PD-L1 (human); experiment: flow cytometry, CHO cells expressing PD-L1
PD-L1 (human), sequence (chain, as listed by the source): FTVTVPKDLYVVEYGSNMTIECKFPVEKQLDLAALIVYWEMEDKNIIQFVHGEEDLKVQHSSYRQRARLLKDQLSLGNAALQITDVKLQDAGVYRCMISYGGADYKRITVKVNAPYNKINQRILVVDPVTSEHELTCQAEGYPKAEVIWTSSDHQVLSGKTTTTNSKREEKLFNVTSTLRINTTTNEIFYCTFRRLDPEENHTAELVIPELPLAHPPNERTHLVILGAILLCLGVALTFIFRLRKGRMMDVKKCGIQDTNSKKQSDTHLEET

[3] = target: CD28 (human) (UniProt P10747); experiment: flow cytometry, Jurkat cells (CD28)
[4] = target: T2, CD226 (human) (UniProt Q15762); experiment: flow cytometry, transfected HEK293 cells
T2 sequence: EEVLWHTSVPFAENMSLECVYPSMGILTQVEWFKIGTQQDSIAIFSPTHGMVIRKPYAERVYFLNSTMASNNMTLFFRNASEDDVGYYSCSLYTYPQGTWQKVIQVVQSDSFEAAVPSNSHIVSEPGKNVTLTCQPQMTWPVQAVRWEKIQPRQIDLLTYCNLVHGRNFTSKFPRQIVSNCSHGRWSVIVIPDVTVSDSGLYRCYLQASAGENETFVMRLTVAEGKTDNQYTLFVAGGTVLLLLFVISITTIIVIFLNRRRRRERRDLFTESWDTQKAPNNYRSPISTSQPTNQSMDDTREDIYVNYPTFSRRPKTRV

[5] = target: T3, CD96 (human) (UniProt P40200); experiment: flow cytometry, transfected HEK293 cells
T3 sequence: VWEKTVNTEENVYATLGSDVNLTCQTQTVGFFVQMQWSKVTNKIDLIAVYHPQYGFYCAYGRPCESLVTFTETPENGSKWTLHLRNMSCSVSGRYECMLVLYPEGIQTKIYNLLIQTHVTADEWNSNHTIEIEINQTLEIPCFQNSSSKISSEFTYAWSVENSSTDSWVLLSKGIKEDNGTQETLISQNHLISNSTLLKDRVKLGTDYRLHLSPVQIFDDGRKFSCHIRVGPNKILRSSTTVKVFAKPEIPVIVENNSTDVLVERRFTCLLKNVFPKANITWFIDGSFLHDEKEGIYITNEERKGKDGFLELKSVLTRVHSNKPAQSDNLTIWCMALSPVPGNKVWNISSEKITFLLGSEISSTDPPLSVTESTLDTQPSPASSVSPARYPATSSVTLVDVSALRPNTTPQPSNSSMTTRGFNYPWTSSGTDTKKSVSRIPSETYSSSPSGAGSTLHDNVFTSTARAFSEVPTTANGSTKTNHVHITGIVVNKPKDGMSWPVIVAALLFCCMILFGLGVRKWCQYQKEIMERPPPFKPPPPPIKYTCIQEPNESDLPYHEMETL

[6] = target: CD112R (human) (UniProt Q6DKI7); experiment: flow cytometry, transfected HEK293 cells
CD112R (human), sequence (Q6DKI7 whole entry): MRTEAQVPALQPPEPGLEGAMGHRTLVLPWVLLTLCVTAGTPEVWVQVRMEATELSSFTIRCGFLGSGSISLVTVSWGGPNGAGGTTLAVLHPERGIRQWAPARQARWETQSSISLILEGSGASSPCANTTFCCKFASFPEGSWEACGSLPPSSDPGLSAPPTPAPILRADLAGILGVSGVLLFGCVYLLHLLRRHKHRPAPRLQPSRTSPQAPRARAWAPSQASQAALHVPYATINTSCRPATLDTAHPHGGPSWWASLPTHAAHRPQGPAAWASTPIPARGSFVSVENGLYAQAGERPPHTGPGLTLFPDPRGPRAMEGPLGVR

wild-type CD155 IgV-Fc (Fc fusion), sequence (chain): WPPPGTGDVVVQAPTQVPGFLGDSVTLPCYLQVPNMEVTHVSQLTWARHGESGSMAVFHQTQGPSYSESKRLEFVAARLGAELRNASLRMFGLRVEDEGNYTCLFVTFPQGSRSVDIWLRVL

MFI at 100 nM [1] | MFI at 100 nM [4] | MFI at 100 nM [5] | MFI at 100 nM [6] | Substance | also measured
– | 2790 | 3320 | – | variant CD155 IgV-Fc, G111R (Fc fusion) | –
3820 | – | – | – | variant CD155 IgV-Fc, P18S, V41A, S42G, T45G, L104N (Fc fusion) | –
2210 | 2570 | 2760 | – | variant CD155 IgV-Fc, Q62F (Fc fusion) | –
– | 2190 | 1620 | – | variant CD155 IgV-Fc, S42A (Fc fusion) | –
2260 | 1890 | 1610 | 1780 | variant CD155 IgV-Fc, S42A, S52L, L104E, G111R (Fc fusion) | fold increase to WT ECD [6]: 1 fold; fold increase to WT ECD [5]: 0.02 fold
– | 2160 | 1640 | – | variant CD155 IgV-Fc, S42A, S52Q, L104Q, G111R (Fc fusion) | –
– | 2100 | 1590 | 1680 | variant CD155 IgV-Fc, S42C (Fc fusion) | –
– | 2150 | 1480 | – | variant CD155 IgV-Fc, S42C, S52L (Fc fusion) | –
– | 2190 | 1620 | 1740 | variant CD155 IgV-Fc, S42L (Fc fusion) | –
2430 | 2310 | 1960 | – | variant CD155 IgV-Fc, S42N, L104Q, G111R (Fc fusion) | –
– | 1740 | 1540 | 1690 | variant CD155 IgV-Fc, S42N, S52E, V57L, L104E (Fc fusion) | –
– | 2270 | 2530 | 1810 | variant CD155 IgV-Fc, S42V, S52E (Fc fusion) | –
2430 | 2130 | 2560 | – | variant CD155 IgV-Fc, S42W (Fc fusion) | –
– | 2140 | 1700 | – | variant CD155 IgV-Fc, S42W, S52Q, V57L, Q62Y (Fc fusion) | –
– | 2300 | 1760 | 1820 | variant CD155 IgV-Fc, S42W, S52R, Q62Y, L104Q (Fc fusion) | –
2660 | 2600 | 1800 | – | variant CD155 IgV-Fc, S52E (Fc fusion) | –
– | 1900 | 1610 | – | variant CD155 IgV-Fc, S52M (Fc fusion) | –
2670 | 2250 | 1630 | – | variant CD155 IgV-Fc, S52M, L104Q (Fc fusion) | –
– | 2000 | 1650 | 1770 | variant CD155 IgV-Fc, S52M, Q62Y (Fc fusion) | –
2290 | 2020 | 1820 | 1790 | variant CD155 IgV-Fc, S52Q (Fc fusion) | fold increase to WT ECD [6]: 1 fold; fold increase to WT ECD [5]: 0.02 fold
4400 | 3960 | 4850 | – | variant CD155 IgV-Fc, S52R (Fc fusion) | –
2970 | 3170 | 2360 | – | variant CD155 IgV-Fc, S52R, Q62F, L104Q, G111R (Fc fusion) | –
– | 1910 | 1630 | – | variant CD155 IgV-Fc, S52W, L104E (Fc fusion) | –
2860 | 5940 | 1530 | – | variant CD155 IgV-Fc, T45Q, S52L, V57L, L104E (Fc fusion) | –
4090 | 2080 | 2340 | 1790 | variant CD155 IgV-Fc, T45Q, S52R, G111R (Fc fusion) | fold increase to WT ECD [6]: 1.01 fold; fold increase to WT ECD [5]: 0.02 fold
1960 and 2180 and 4690 | 2320 and 2370 and 4690 | 1890 and 1680 and 3270 | 2170 and 1740 and 2940 | wild-type CD155 IgV-Fc (Fc fusion) | fold increase to WT ECD [6]: 1.22 fold and 0.98 fold and 1.65 fold; fold increase to WT ECD [5]: 0.02 fold; fold increase to WT ECD [1]: 0 fold

Continued, substance first:

Substance | MFI at 100 nM [1] | MFI at 100 nM [4] | MFI at 100 nM [5] | MFI at 100 nM [6] | also measured
CD155 variant IgV-Fc P18S, H59N, V75A, L79P, A81T, F91S, L104M, T107M (Fc fusion) | – | – | – | – | MFI at 25 nM [1]: 800 MFI
CD155 variant IgV-Fc V9L, V11M, P18S, N35S, S54G, Q62K, L79P, L104M, T107M, V115M (Fc fusion) | – | – | – | – | MFI at 25 nM [1]: 3000 MFI
variant CD80 E35D/D46E/M47V/A71D (Fc fusion) | – | – | – | – | MFI at 33.3 nM [2]: 549 MFI
variant CD80 E35D/D46V/M47L/V68M/L85Q/E88D (Fc fusion) | – | – | – | – | MFI at 33.3 nM [2]: 137000 MFI
variant CD80 E35D/K37E/M47V/N48D/L85Q/D90N (Fc fusion) | – | – | – | – | MFI at 33.3 nM [2]: 26500 MFI
variant CD80 E35D/M38T/D46E/M47V/N48S (Fc fusion) | – | – | – | – | MFI at 33.3 nM [2]: 19400 MFI
variant CD80 E35D/M47L/A71G/L85Q (Fc fusion) | – | – | – | – | MFI at 33.3 nM [3]: 1440 MFI
variant CD155 IgV-Fc, A13R, D23Y, E37P, S42P, Q62Y, A81E (Fc fusion) | 4160 | – | – | – | –
variant CD155 IgV-Fc, L104E (Fc fusion) | 3140 | 2260 | 1560 | 1800 | fold increase to WT ECD [6]: 1.01 fold; fold increase to WT ECD [5]: 0.02 fold
variant CD155 IgV-Fc, L104Q (Fc fusion) | – | 3790 | 1540 | – | –
variant CD155 IgV-Fc, P18L, E37S, Q62M, G80S, A81P, G99Y, S112N (Fc fusion) | – | – | 3340 | – | –
variant CD155 IgV-Fc, Q62F, L104E, G111R (Fc fusion) | – | 2040 | 1520 | 1700 | –
variant CD155 IgV-Fc, Q62Y (Fc fusion) | 2530 | 2620 | 1830 | – | –
variant CD155 IgV-Fc, S42A, L104Q, G111R (Fc fusion) | – | 1900 | 1700 | 1820 | –
variant CD155 IgV-Fc, S42C, S52M, Q62F (Fc fusion) | – | 2080 | 1480 | – | –
variant CD155 IgV-Fc, S42G (Fc fusion) | 4840 | 2450 | 1700 | 1820 | fold increase to WT ECD [6]: 1.02 fold; fold increase to WT ECD [5]: 0.02 fold
variant CD155 IgV-Fc, S42G, S52L, Q62F, L104Q (Fc fusion) | – | 2160 | 1640 | – | –
variant CD155 IgV-Fc, S42G, S52Q, L104E, G111R (Fc fusion) | – | 2020 | – | – | –
variant CD155 IgV-Fc, S42L, S52L, Q62F, L104Q (Fc fusion) | – | 2640 | 2320 | – | –
variant CD155 IgV-Fc, S42N (Fc fusion) | – | 1910 | 1690 | 1700 | –
variant CD155 IgV-Fc, S42N, S52Q, Q62F (Fc fusion) | 2400 | 2150 | 1740 | – | –
variant CD155 IgV-Fc, S42Q (Fc fusion) | – | 2230 | 2140 | – | –
variant CD155 IgV-Fc, S52L (Fc fusion) | 2220 | 2680 | – | – | –
variant CD155 IgV-Fc, S52L, L104E (Fc fusion) | 4320 | 2210 | 1830 | 1760 | fold increase to WT ECD [6]: 0.99 fold; fold increase to WT ECD [5]: 0.02 fold
variant CD155 IgV-Fc, S52M, V57L (Fc fusion) | – | 2430 | 1860 | – | –
variant CD155 IgV-Fc, S52W (Fc fusion) | – | 2040 | 1710 | 1610 | –
variant CD155 IgV-Fc, T45Q, S52L, L104E, G111R (Fc fusion) | 2290 | 2390 | 1580 | – | –
variant CD155 IgV-Fc, T45Q, S52Q (Fc fusion) | 4810 | 5790 | 2450 | – | –
